Results: paper PMC9676460, “Dynamic acylome reveals metabolite driven modifications in Syntrophomonas wolfei” (Frontiers in Microbiology, 2022)
Several values for one entry are separate records, joined by “and”; a condition that tells them apart may be missing. Equal values may be shown once.

Target: the molecule itself
Test: crystal structure; Act2 alone; hanging drop, 0.1 M sodium formate pH 7.0, 12% PEG 3,350, room temperature; space group P 41 21 2; two molecules in the asymmetric unit; tetramer from crystal packing

B1: Syntrophomonas wolfei Göttingen Act2 (Swol_0675), acetyl-CoA acetyltransferase (enzyme)
chain: MAEINEVVVVGMARTPIGRYLGGLASVRANDLAIIAANAAIERAGVDPGIIDEIVGATCLHAGNGSLPPRIIGMKVGLPVRSGSCMVSQNCASGMRATEIACQNIMLGKTDISLVTAVESMSNIPYLLQQARSGYRMGDGKVQDAMLSDGLVCQLAGGHMGMTAENIAEKYGITREECDALALTSHQNAVKAVDEGIFDREIVPVVIKSKKGDKVISKDEHPIRGASLETMAKLPPAFKKGGVVTAANASGINDCAAAAVFMSKKKCEELGLKPLMKLVGICSEGVDAKVMGLGPAVAMPKVLKQAGWKYEDVDYWEVNEAFAAQVLGVVRMLKEEAGIELDFSKTNHNGSGIGLGHPVGATGLRIIVSMYYELERLGLTKGGASLCVGGGSAMASLWTRDI
notes: Act2, acetyl-CoA acetyltransferase encoded by the gene Swol_0675 of Syntrophomonas wolfei subsp. wolfei strain Göttingen; synthesized gene cloned into pMAPLe4; The asymmetric unit holds a homodimer; also called acetyl-CoA transferase; acyl-CoA transferase paralog; source: E. coli BL21-Gold (DE3), purified (NiNTA, TEV cleavage, Superdex 200 SEC); not shown: His6, N-terminal, cleaved
stoichiometry N: 2 and 4
